The labels stand for the following.
B1: CBL-interacting serine/threonine-protein kinase 24 (Arabidopsis thaliana (Mouse-ear cress)), Q9LDI3 (parent)
chain: MTKKMRRVGKYEVGRTIGEGTFAKVKFARNTDTGDNVAIKIMAKSTILKNRMVDQIKREISIMKIVRHPNIVRLYEVLASPSKIYIVLEFVTGGELFDRIVHKGRLEESESRKYFQQLVDAVAHCHCKGVYHRDLKPENLLLDTNGNLKVSDFGLSALPQEGVELLRTTCGTPNYVAPEVLSGQGYDGSAADIWSCGVILFVILAGYLPFSETDLPGLYRKINAAEFSCPPWFSAEVKFLIHRILDPNPKTRIQIQGIKKDPWFRLNYVPIRAREEEEVNLDDIRAVFDGIEGSYVAENVERNDEGPLMMNAFEMITLSQGLNLSALFDRRQDFVKRQTRFVSRREPSEIIANIEAVANSMGFKSHTRNFKTRLEGLSSIKAGQLAVVIEIYEVAPSLFMVDVRKAAGETLEYHKFYKKLCSKLENIIWRATEGIPKSEILRTITF

The values that follow come from IntAct's records for PubMed 17875927.

In the first assay the parent is B1. As to conditions: with vatb1_arath VHA-B1, P11574.
Sequence of vatb1_arath VHA-B1, P11574 (P11574 whole entry): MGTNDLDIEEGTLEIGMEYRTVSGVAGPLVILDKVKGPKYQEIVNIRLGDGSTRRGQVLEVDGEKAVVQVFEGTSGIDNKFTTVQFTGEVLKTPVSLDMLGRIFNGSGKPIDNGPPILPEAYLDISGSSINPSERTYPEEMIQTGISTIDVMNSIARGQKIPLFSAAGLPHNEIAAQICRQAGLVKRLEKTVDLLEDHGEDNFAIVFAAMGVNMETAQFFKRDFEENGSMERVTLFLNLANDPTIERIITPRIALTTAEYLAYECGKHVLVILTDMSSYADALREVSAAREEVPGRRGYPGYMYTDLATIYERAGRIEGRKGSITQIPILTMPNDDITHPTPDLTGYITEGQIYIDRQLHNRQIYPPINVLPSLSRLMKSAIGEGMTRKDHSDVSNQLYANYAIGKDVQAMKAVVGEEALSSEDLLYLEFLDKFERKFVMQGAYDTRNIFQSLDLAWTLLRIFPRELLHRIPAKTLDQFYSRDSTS
For the variant K40N, the “effect of a mutation on the interaction” value was “decreasing interaction”.

Variants of B1 are the subject of the next assay. As to conditions: with vatb2_arath VHA-B2, Q9SZN1.
Sequence of vatb2_arath VHA-B2, Q9SZN1 (Q9SZN1 whole entry): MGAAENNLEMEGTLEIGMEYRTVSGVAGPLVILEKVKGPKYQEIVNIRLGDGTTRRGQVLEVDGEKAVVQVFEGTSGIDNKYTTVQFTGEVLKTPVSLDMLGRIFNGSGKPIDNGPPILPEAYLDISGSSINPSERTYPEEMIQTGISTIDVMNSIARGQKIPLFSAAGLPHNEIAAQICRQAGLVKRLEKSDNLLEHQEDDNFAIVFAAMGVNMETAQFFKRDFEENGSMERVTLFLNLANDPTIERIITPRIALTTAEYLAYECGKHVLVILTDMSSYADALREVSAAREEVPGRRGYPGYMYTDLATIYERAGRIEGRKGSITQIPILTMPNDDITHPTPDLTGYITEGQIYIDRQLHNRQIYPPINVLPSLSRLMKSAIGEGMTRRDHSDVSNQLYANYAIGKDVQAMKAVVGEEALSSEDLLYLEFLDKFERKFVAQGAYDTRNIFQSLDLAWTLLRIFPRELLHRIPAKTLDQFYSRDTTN
K40N: the “effect of a mutation on the interaction” value was “decreasing interaction”.
